Measured values published in a protein production outcome set (Wang et al. 2014).

Assay: label from the status in PepcDB records
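Also: failed if final PepcDB status was selected cloned or expressed and not failed if soluble or beyond.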

Sequence	protein production
METDPDYSMVLLTENFPPYNMAINGKNFAQEDNIDGIAVDIVREMFKRAGIKYSLTLRFPWDRIYKLALEKPGYGVFVTARLAEREDKFKWVGPIGPDDWVLLAKGDSPITLGSLDEAKKYRIGAYKGDAIAEFLGKNGFEADLEHHHHHH	failed
METKGEPYSEPCEFFNSILTGSVSRKMRLPRMGIRNFIGTSRLHFAKRAFHAQAAVDEDSRYGALLSIKEYPPFTGPGMLDGLLQVNHEFILTQSFTLADKPIAQERITRLQRQIRASDEAGTSVESDINFALDSMLNQEAVFGFHHFSLLCISRDLEGLSRCVSELGACLTDMNINWLREDLNLEAAFWAQLPGNHSYIARKAMLSSSNFSGLSSMHNFASGQAERTHWGLPITILETTSQTPYWFNFHRRDIGHFTVTGPTGSGKTVGLSFLLAQAMRVSPTPRAVFFDKDRGAEIFVRAIGGSYEILSPGTPTGFNPLQLENTGPNREFLQRLLKAMLGGRDRRDFTQEDEDIIERAVVRLMEEPAQQRNLTNLGNLLMGRARADANDLYSRLRPWTEGEKAWLFNAPHDVLSFSGRTVFGFDMTSILGNEELRTPALMYLYHRLDELLDGNPVMFFMDEGWQLLLDETFSAFIVDKMKTIRKLNGIVGFGTQSAADIAKSKVSHTLIEQSSTNIHFPNPRADEESYIKRFGLTVKEYNFIKNTPPEKRTFLIKHGNDSVIARLDLSSMPDLVKVLSGRKETIEECAALREQYGDEPENWLAKFCGWENAELEHHHHHH	not failed
METLLHAKLLLSAEVESLKSGSFDQTYVKKAEHIISGESYQLVQQFVDKFKGKISISGEISTSSVIAALNDFLNVEVFKMGQENEMLFLAIALLQTFIQNNYTGPAARLKAISGLFGKTGIEIGAVNTALSRSLAIMGQPAYEFMDDPLYLVLSLLLLERITGQKSLFDVTPDQEIPLPIISAESTPGLLAVAYWWWARALLTQLSLIPEPSGFQASVASAIYQSADLAYAITKELPESIHEDFKRELCAMYYLENVKCSLAINTEHLCLPSLTRAKKITNFEFVMTGARATRTKYQQKAHAGLIILAKSFTFQNFALRTTSATPETFALESDLLLEKPHFESIADEPLDEQIYSKRQKVDLNEGYEEDKLLPLALRQENIPKLLLDLNPNDQPTLSDYDNIQLLLRLYTIKNTTPAKDPLVEEELTALLSRILYQNGDKNWSIFARSLWERSIIETTKAKTIERGLLQMQSLVEELDLKIKSKLVPSSSEINVASRLSYIHQLPFIPRWQLDATLAEKYMSLGILKSAVEIYERLGMACETALCYAAVGDEKKAEEILLQRINENDSDARAYSILGDIKQDPSLWEKSWEIGKYVNAKNSLAKYYFNPPPKSGAQPNYSATLKHLNDSLRQYPLSFETWYFYGCVGLQCGKMQIAAEAFTRCVSLDPYHALSWSNLSAAYTKMDKLKEAYSCLKRAISCDAQKNWKIWENYMLVAVKLNEWEDVLTACKQLVSIRRDKSGEGSIDLPIIEKLVELLVTSEYPEEPQQLSYFQKSCTEFICNTLPQVITTSARCWRLVARVELWRKRPWAALECHEKAYRAISHNPDLEVEEKVWNDTVDACEDLVAAYESLGEMEGKYGPGSLVCKDWKYKCRSTIKALMSKGKGRWDDSPGWDRLVEARSQI	failed
METLSDVFATFSQRGDTTAFVHRTGVRRYVFTYLDLHALSLRMNRWLADQGVGEGDRVVLWGPNSPWWAVAFWGIVTRGAVAVPVDFMSGAERAEIIAGLTDAKLVIQSRDKLEHHHHHH	not failed
METNRPSPDALLVNLQEEADSSVGKLKIYFGFAAGVGKTYAMLSDAKDQLAAGVDVVAGYIEPHAREETLRMLEGIPIIPPKAINHKNIALKEFDLDEALKRKPELILVDELAHTNASGVRNKKRFQDVEELLQAGIDVYTTVNVQHIESLNDIVEGITKVAVRETIPDYVFDEADRVKLIDIEPDELLKRLEQGKIYQPARAKTAMQNFFTRENLKLLREIAMRKAADRI	not failed
METPNSTGGTPPTMRVSVVLCTHTMERYDDCRAAAESVLAQTYDDVELVLVSDGNRDVYKQYQSDFGNRDDVLTHCNDANVGLLESRNNGAEVATGDVVAFIDDDAIADEEWVAALVDAYEQQDALAVGGRMTPAWVAGKPSFLPAEFYWLIGVTHRGFGPNGDPDEPGVVRNTFGSNISFDRDVFLELGGFDDDIGGRQGEKNLQGGETELCARLRTEYDEGVYYTPEALVAHKIFDYRTDPGWLLDRAFWQGYSKRGMEVFVPESTGEESDFLSDLLFRFAPERIWGLVRAPSVAGVLQFVFLFALTAFVGFGYLYGMTVWG	failed
METRAPFVIVGAFVLAAIFAVFGFVFWLHNTSGVGARTSYHVQFRDPVPGLLVGAAVLFNGIRVGEVTALALAPDDPRRVDATIAVAPSTPVRPDTKVGLDFQGLTGVPVVALEGGKQLSGSAIATTLVAEPGAGMSMTQAAREALRKVDSVLGENSGPLKDTIANFKTFSEWLAGKTEKLDGILGGVERMTGANEPVVKKVVYDLSAATGFPPPSPPLKGQLTIPESNTVVLFDSQKMLLAPGLEVPAFAGAQWSDSLPKMLQEKLIQSFENYDIAHAPMRPNDAVQPDYQLLTDIRSFQVIGEGDALRAEIAFSAKIIDKDGKLVAARLFQQASPLDKPEPAAAVSAFDKSFDTIAKELVPWAAQALASGRAEVEPAATTSRPITAPRSSGTTKGR	failed
METSRVEEWFERGVEALGHDQVYLARSCFEHVARVNQHPAASSYLALCQAKTRGKFSDAIALARESIAREPHNPLLYQNLGRIYQLAGMRMDAVEVLREGVRRGAGEEAVAELNRIGTRKQPPFRRLHRNHPLNKYVGKLLARLRLR	failed
METTHYSIAQHFSSGDFPAVYACFNDIIEWNIIGNQVVKGKADVIDFCNKMLPEMKGAVLTNDNVIQNENQIVIEGKCRYFDAEGKEAFVSYCDIYRFENDTIKTITSYCI	not failed
MEVHAADQYLVAPGEADLLEVHARLAGTGLFPPFPPVELPGGVGGLVARGGFAQTFFFPAEVLGLTFRTPKGRRVRAGGVVVKNVQGYDLVRLFVGSFGLLGRAEEVVLRLRPGRAQAFLRRPFSGSFPRLVPTPRFLFALEDEEGPWLYAYHFGHPKEVERFREAFGGEEARPLDLRPRFPRGLGLGEGPLWDLRFRYQDGGASPPPPPAFLRLARVL	not failed
MEVMVFTPKGEIKRLPQGATALDFAYSLHSDLGDHCIGAKVNHKLVPLSYVLNSGDQVEVLSSKSQQPTELEHHHHHH	not failed
MEVNRLSALTPPMGWNSWDCYGASVTEEEVLGNAEYMANHLKKYGWEYIVVDIQWYEPTANSSAYNPFAPLCMDEYGRLLPATNRFPSAKNGAGFKPLSDAIHDLGLKFGIHIMRGIPRQAVYENSPVLGSTKTAREIAHTNSICPWNTDMYGVDPTKEGAQSYYNSLFELYAQWGVDFVKVDDIAASRLYDTHLEEIKMIQRAIQACGRPMVLSLSPGPAPIKYAHHFKTNANMWRITDDFWDDWSLLYQMFERCEVWEKHIGTGHWPDCGMLPLGHIGIRSVDGPGGDRWTRFTKDEQLTMMNLWAICHSPLMFGGELRDNDEWTLSLLTNEGILSINQKSVLNRFVYREEDKVAWAANGRNGEAYVALFNLHDQQKTLQFRLDMVGIMETVQLFNVWDRSFLQSLAPSESFQIELKPHQSMMLKLSPDR	not failed
MEVPKEQIATLIEHGLYDSAEMLGCFLVSSPTVSAETSPQLKAENLILLGDALFHQREHRRAIHTYKQALHHYTRIPKQSSGISRSSLSLSTRSSVNASSISAINENEVRFKIASSHFALNETKAAIAEMESVKTRSLEMNILMAKLHRNSGYNRGAIAFYKECLRQCPYVLEAVIGLAELGVSAKDIISSFTQTSNRSAKVSLDQIDPTRWLQRYVEAQCCVASHAYKGALELFAELLQRFPNNVHLLTETAKVEAIIGKNDEAIMRFEKVRSIDPYTLTSMDEYAMLLQIKCDYSRLNKLVHDLLSVDHTRAEVFVALSVLWERKDARTALSYAEKSIRVDERHIPGYIMKGNLLLQAKRPEAAAIAFRAAQNLRSDLRSYQGLVHSYLAFGKTKEALYTAREAMNAMPQSAKALKLVGDVHAFTSSGREKAKKFYESGLRLEPGYLGAVLALAELHLMEGRNGDAVSLLERYLKDYADDSLHVKLAQVFAATNMLQDSLSHFQAALRINPQNEAAKKGLDRLEKQMKGIDPDATDENDENDVEDVDGDTEEAELM	failed
MEVSDGSSQVLNSMKHVASLRADEDPDETSLLLSSTLLDLVVFRLVLVLYCVRVLMLDQYQETIALSQEVMMEDGRREFNVPMNCPIPVVKRRMKAPKHVDEDLFKIFPQATTYLRQIQKGGGSGCFEFIRGEVCTKDLSQNNTFYFIF	failed
MEYEHITHSFEPVYDENSRILILGTLPSVASRENNFYYGHKQNRFWKLLAYLLDEPVPETIDEKKYMLFKNHIAIWDVIQSCDIKGSSDSSIKNVEPTDIRKILETADIKQVYANGNKAGALYKKYQLPLTGMEAVTLPSTSPANAAWSFERLCEAWTRILANL	failed
MEYETILKLFSLVYIIIMMTIDFWIFGLILRREYVRVKGLLIILSIVLMMGLESLALAQLNVLLFISGMLLVLIPLFISFLIKDHSINVNRNWKYGLLLSSVIVFDELAMGYLYGNYFTPLPNPLLTAINNPAYGAMMLGDAIFFLYILRRRSIMEFAITTFAISMAFMPSLYLMDRMLEFIMSILTSLFMIVNIVLLYLTEMRMLTFQGQLVAISLSLFNLLMMLGLTFFASLSNLYFLTLSMIASMVWYFFLIFYNVPAKKISPKPFLFLVLVNLTELAMGFGESVLGFNLTNSLFVNTMNCEMMIGSHMMRSPFNNPFWWLFPINPLTMITMTIMKYNLLGKLVMVPFMTIMTTTMAPFYVIMMGAEMSYLVYERFKKVKTRYLKAWTLGILTGIPIFVVLIPYYTNYYIFGMSGMIFPVTLAPFVISLVVIALFSTLFGRGVYCNLVCMSAHMWSNVFYEQFSAKKNSKFWDYLRWIFLVPLIIAFYLFVMMGLGKIKLPIDPLDFYGMFTLNYIWWFFYFLTPIFGIYSCARQGWCGFGTFNGIFNKVLFKIRAKDVNTCKECVSKECDTSCPVKIPISNDILKKGYSNRISCIVCARCVDACDNVEIVNVVTILKNRESKSF	failed
MEYFLENPDHLWYLIAGISFVIELSIMGLSGPLLFFAIASLTTGILVTVGFVEGWQSEIFTVGVLTAIIAAILWKPLKSLQNSKDTTDNSSDMVGLTVLASTEINVSSGSIRYSGIDWQARLAEEANGESISAQSQCVIVAITGNIMLVKSL	failed
MEYHLQTPLKFEDIEKLNAGDIVYISGEILTARDEAHARILEMEERGEELPFSLEGAVIYHCGPLMQQTESGWKVISAGPTTSGRMSKMTPPLLKTHKVRAIIGKGGMKNVADSLKSCCVYLAYTGGCAALAAELIKDVKTVHWPDLGMPEAVWILRVEKFGPLIVGIDAKGKDIFSEVREKAEKALEELQK	failed
MEYKPMPYPIIDSHCHLDFPKFNPDREEAIQRARKAGVVGMVNSGISLKGNRISLELAEKNEDIHAALGLSPDIGREGSDKDINAILAQIEANAGKAVAIGEAGLDFQDCKTDEERRRQTASFKKVIELAKNLEKPLVVHARMAEAEVLELARDVDTVIYHCYSGSVETMKEIVDAGYYISLATLVCFSEHHQTLAAEVPPENLLLETDSPFLSPRRGRNEPAFIVDSIPVVAEYKEMEPAEIAKFATENARRVFKILEHHHHHH	failed
MEYLGPVLWSPAGKPPTWWDSLPTDRPIVYATLGTSGGRNLLQLVLNALAELPVTVIAATAGRSDLKTVPANAFVADYLPGEAAAARSAVVVCNGGSLTTQQALVAGVPVIGVAGNLDQHLNMEAVERAGAGVLLRTERLKSQRVAGAVMQVISRSEYRQAAARLADAFGRLEHHHHHH	failed
MEYQHWLREAISQLQASESPRRDAEILLEHVTGRGRTFILAFGETQLTDEQCQQLDALLTRRRDGEPIAHLTGVREFWSLPLFVSPATLIPRPDTECLVEQALARLPEQPCRILDLGTGTGAIALALARERPDCEITAVDRMPDAVALAQRNAQHLAIKNIHILQSDWFSALAGQQFAMIVSNPPYIDEQDPHLQQGDVRFEPLTALVAADSGMADIVHIIEQSRNALVSGGFLLLEHGWQQGEAVRQAFILAGYHDVETCRDYGDNERVTLGRYYQ	failed
